Laboratory results reported in patent US20220135680A1 (ABZYME THERAPEUTICS, published 2022).
Residue numbers refer to the chain shown, from its start.

Assays:
[1] = target: T1, human CD3 receptor on human cells (human, UniProt P07766 23-207; P09693 23-182; P04234 22-171); assay: flow cytometry on Jurkat cells (FIG. 5)
T1 construct: whole, on cells; also called human CD3 on cell surface; CD3 on Jurkat cells, clone E6-1

[2] = target: T1, human CD3 receptor on human cells; assay: flow cytometry on human cells (Example 5)

B1: Abz497 ScFV (scFv)
scFv: QIQLVQSGAEVAKPGASVKVSCKASGYTFTRYTMHWVRQRPGQGLEWIGYINPSRGYTNYNQKFKDRATLTTDKSTSTAYMELSSLTSEDTAVYYCARYYDDHYCLDYWGQGTTVTVSSVEGGSGGSGGSGGSGGVDDIQLTQSPSSLSASVGDRVTITCRASSSVHYMNWYQQKSGTAPKRWIYDTSKVASGVPYRFSGSGSGTSYTLTISSLQPEDAATYYCQQWSSNPLTFGGGTKVEIKR
notes: also called pH-dependent ScFV antibody variant; not shown: FLAG tag at the C terminus
Does B1 bind [1]?
Result: binds

B2: Abz494 ScFV (scFv)
scFv: B1 scFv with S144P
notes: as for B1
Does B2 bind [2]?
Result: binds
